In patent US10781452B2, “FLT3 receptor antagonists for the treatment or the prevention of pain disorders” (INSTITUT NATIONAL DE LA SANTE ET DE LA RECHERCHE MEDICALE …, priority 2010, dated 2020):

How the values were obtained:
[1] = biological target: T1, ECD of mouse recombinant FLT3 (Fc-ECDmFLT3) (Mus musculus, UniProt Q00342); assay: ELISA binding to ECD of mouse recombinant FLT3; details: antibody at 10 μg/mL
T1 construct: ECD of human or mouse recombinant FLT3 produced in NSO cell line; host or cells: NSO cell line
T1 sequence (Q00342 28-544 limits assumed): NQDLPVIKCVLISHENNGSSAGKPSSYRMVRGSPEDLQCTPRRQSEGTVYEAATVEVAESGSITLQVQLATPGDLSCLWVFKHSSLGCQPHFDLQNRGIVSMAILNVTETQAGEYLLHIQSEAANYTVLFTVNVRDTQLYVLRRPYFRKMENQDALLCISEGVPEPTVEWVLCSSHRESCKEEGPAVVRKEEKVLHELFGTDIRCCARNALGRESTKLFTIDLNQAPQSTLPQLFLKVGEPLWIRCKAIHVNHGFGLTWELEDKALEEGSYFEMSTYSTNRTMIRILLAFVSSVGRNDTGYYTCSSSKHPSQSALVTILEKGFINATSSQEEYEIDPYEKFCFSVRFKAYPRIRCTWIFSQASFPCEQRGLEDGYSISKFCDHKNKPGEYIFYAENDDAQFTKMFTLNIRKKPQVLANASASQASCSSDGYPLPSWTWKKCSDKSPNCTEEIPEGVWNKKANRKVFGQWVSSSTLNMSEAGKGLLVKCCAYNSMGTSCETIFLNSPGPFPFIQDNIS
Experimental: (§1) The A3 antibody directed against FLT3 was produced by a phage display strategy and the antibody selection was performed by using ECD of human or mouse recombinant FLT3 produced in NSO cell line. To identify antibodies cross-reacting with both human and mouse FLT3, phages were selected by three rounds of panning, according to methods well known in the art (Philibert, P. et al. A focused antibody library for selecting scFvs expressed at high levels in the cytoplasm. BMC Biotechnol. 7, 81; 2007), first against the ECD of human FLT3, then against the ECD of mouse FLT3 and then against the ECD of human FLT3. A batch of one selected antibody named A3 was tested for its ability to bind to the ECD of human or mouse recombinant FLT3 using an ELISA technique.

FLT3 = biological target: T2, FLT3 (Homo sapiens, UniProt P36888); assay: FL-induced FLT3 auto-phosphorylation assay in RS4-11 cells; format: cell-based; details: antibody at 10 and 100 μg/ml
T2 construct: expressed in transfected cells; host or cells: RS4-11
T2 sequence (P36888 27-993): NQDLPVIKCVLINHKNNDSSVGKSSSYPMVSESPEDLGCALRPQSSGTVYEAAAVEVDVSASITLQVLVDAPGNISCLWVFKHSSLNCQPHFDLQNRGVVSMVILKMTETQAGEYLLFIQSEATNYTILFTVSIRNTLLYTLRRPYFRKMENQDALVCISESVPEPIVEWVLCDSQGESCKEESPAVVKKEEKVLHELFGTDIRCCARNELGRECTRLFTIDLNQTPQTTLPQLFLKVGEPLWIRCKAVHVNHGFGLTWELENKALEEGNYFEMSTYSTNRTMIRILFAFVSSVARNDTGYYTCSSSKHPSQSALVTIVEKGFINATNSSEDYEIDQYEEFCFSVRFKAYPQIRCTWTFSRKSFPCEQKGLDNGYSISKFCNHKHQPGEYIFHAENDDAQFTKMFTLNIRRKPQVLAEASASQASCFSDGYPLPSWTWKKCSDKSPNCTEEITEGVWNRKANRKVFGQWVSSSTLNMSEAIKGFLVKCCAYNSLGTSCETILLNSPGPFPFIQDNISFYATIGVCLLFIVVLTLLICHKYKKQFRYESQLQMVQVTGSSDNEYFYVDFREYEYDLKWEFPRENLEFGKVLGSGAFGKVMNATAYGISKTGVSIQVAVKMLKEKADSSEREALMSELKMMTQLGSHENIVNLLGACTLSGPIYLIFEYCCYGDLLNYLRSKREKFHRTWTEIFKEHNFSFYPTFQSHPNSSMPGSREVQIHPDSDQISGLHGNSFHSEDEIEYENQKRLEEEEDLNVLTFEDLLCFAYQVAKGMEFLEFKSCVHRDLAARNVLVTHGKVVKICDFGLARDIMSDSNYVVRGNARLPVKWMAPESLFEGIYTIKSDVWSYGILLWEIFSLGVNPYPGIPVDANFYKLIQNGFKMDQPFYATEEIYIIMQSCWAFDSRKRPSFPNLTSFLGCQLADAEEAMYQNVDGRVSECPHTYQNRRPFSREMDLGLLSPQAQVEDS
Experimental: Cell. RS4-11 cells, used for auto-phosphorylation assays, were maintained in RPMI-1640 (Invitrogen) and 10% Fetal Calf Serum. They were transfected as in the case of HEK cells (see above)
Auto-Phosphorylation assays. A density of 50,000 cells per well was used to carry out this assay in suspension in 384-well small volume plates to determine the degree of phosphorylation of FLT3. In the aim to discover antagonist compounds and to develop this assay, we were determined the efficiency of FL on RS4-11 cells.
Cells were incubated with 1 nM of rh-FL in the presence of increasing concentrations of the antibody. In the plates containing RS4-11 cells (5 μL/well), 5 μL of compounds to be tested were added and incubated for 1 h at room temperature prior to the addition of 2 μof rh-FL at 0.1 μM. After incubation of 3 min at room temperature of rh-FL, 4 μl of lysis buffer were added and incubated for 2 h at room temperature. A mix of anti-FLT3 and an anti-TYR-969 FLT3 antibodies labeled with Lumi4-Tb and d2 respectively (4 μL) diluted in Tag-lites) labelling medium, were added on cell lysate. Plates were then incubated at room temperature for 2 h or overnight before signal detection (as above).

[2] = biological target: T3, ECD of human recombinant FLT3 (Fc-ECDhFLT3) (Homo sapiens, UniProt P36888); assay: ELISA binding to ECD of human recombinant FLT3; details: antibody at 10 μg/mL
T3 construct: ECD of human or mouse recombinant FLT3 produced in NSO cell line; host or cells: NSO cell line
T3 sequence (P36888 27-543 limits assumed): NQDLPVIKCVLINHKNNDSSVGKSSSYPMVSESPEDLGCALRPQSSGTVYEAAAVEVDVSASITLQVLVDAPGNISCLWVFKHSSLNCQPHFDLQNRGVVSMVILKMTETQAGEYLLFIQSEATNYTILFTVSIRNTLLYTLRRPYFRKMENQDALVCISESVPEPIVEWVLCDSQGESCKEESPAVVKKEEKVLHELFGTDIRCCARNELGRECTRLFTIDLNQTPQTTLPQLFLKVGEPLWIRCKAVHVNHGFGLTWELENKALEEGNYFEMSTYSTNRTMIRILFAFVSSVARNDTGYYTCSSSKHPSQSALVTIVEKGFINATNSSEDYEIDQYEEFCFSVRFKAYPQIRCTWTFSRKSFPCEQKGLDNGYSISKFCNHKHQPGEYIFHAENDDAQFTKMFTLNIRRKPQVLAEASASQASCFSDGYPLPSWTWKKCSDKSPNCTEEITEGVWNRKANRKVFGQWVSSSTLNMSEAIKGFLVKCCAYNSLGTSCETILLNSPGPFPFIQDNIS
Experimental: as §1

Fc fragment alone = assay: ELISA binding to Fc fragment alone; details: antibody at 10 μg/mL
Experimental: as §1

B1: A3 antibody: human monoclonal antibody against FLT3; VH SEQ ID NO:1, VL SEQ ID NO:2 (antibody, V domains shown)
VH: EVQLVESGGSLVKPGGSLRLSCAASGFTFSNSYMNWVRQAPGKGLEWISDISGSSRDIDYADFVKGRFTISRDNATNSLYLQMNSLRAEDTAVYYCVRSGNSGMDVWGRGTLVTVSS
VL: QSVLTQPASVSGSPGQSITISCAGTSSDVGGGYYVSWYQQHPGKAPKLMIYYDSYRPSGVSNRFSGSKSGNTASLTISGLQAEDEADYYCSSYTNNSTRVFGGGTKLEIK
modifications: Synthetic VH domain of A3; Synthetic VL region of A3
ELISA immunoreactivity against Fc-ECDmFLT3 [1]: generates immunoreactivity
FL-induced FLT3 autophosphorylation (FLT3): inhibits FL-induced FLT3 autophosphorylation
ELISA immunoreactivity against Fc-ECDhFLT3 [2]: generates immunoreactivity
ELISA immunoreactivity against Fc fragment alone (Fc fragment alone): not against the Fc fragment alone
